Tests used:
[1] = molecular target: SufS (alone) (Escherichia coli, UniProt P77444); conditions: covalent (Schiff base with K226)
[2] = molecular target: SufS (first binding site) (Escherichia coli) (UniProt P77444); assay: ITC; conditions: cited from earlier work
[3] = molecular target: SufS (second binding site) (Escherichia coli) (UniProt P77444); assay: ITC; conditions: cited from earlier work
[4] = molecular target: the molecule itself; assay: SEC

## Cc1ncc(COP(=O)(O)O)c(C=O)c1O [PLP]
[1]
  UV-Vis of PLP liberated from purified enzyme: UV-Vis spectroscopic analysis of PLP liberated from wild-type and the variant enzymes

## SufE (from UniProt P76194)
[2]
  Kd: 4 µM
[3]
  Kd: 300 µM

B1: SufS E96A (enzyme, E. coli)
chain: MIFSVDKVRADFPVLSREVNGLPLAYLDSAASAQKPSQVIDAEAEFYRHGYAAVHRGIHTLSAQATEKMENVRKRASLFINARSAEELVFVRGTTAGINLVANSWGNSNVRAGDNIIISQMEHHANIVPWQMLCARVGAELRVIPLNPDGTLQLETLPTLFDEKTRLLAITHVSNVLGTENPLAEMITLAHQHGAKVLVDGAQAVMHHPVDVQALDCDFYVFSGHKLYGPTGIGILYVKEALLQEMPPWEGGGSMIATVSLSEGTTWTKAPWRFEAGTPNTGGIIGLGAALEYVSALGLNNIAEYEQNLMHYALSQLESVPDLTLYGPQNRLGVIAFNLGKHHAYDVGSFLDNYGIAVRTGHHCAMPLMAYYNVPAMCRASLAMYNTHEEVDRLVTGLQRIHRLLG
modifications: PLP cofactor (89-97% PLP incorporation)
[4]
  stoichiometry N: 2

B2: SufS E250A (enzyme, E. coli)
chain: MIFSVDKVRADFPVLSREVNGLPLAYLDSAASAQKPSQVIDAEAEFYRHGYAAVHRGIHTLSAQATEKMENVRKRASLFINARSAEELVFVRGTTEGINLVANSWGNSNVRAGDNIIISQMEHHANIVPWQMLCARVGAELRVIPLNPDGTLQLETLPTLFDEKTRLLAITHVSNVLGTENPLAEMITLAHQHGAKVLVDGAQAVMHHPVDVQALDCDFYVFSGHKLYGPTGIGILYVKEALLQEMPPWAGGGSMIATVSLSEGTTWTKAPWRFEAGTPNTGGIIGLGAALEYVSALGLNNIAEYEQNLMHYALSQLESVPDLTLYGPQNRLGVIAFNLGKHHAYDVGSFLDNYGIAVRTGHHCAMPLMAYYNVPAMCRASLAMYNTHEEVDRLVTGLQRIHRLLG
modifications: PLP cofactor (89-97% PLP incorporation)
[4]
  stoichiometry N: 2

Reference: article PMC6707828 (Biochemistry, 2018)
